In patent US20240376170A1 (BRIGHT PEAK THERAPEUTICS, published 2024):
One block for each binder: values may come before it. Bridges are numbered along the chain shown (N, C = ends). Primed or numbered codes have the meaning given here. [ ]: non-standard residue; d: D form. Ygp = O-(8x polyethylene glycol-amino)-tyrosine (Tyr, amino-capped PEG8); Yn3 = O-(9x polyethylene glycol-azido)-tyrosine (Tyr, azide-capped PEG9); Ygp(7) = Tyr with amino-capped PEG8, O-(PEG8-amino)-tyrosine; Yn3(7) = Tyr with azide-capped PEG9, O-(PEG9-azido)-tyrosine; Ygp″ = O-(8x polyethylene glycol-amino)-tyrosine; Yn3″ = O-(9x polyethylene glycol-azido)-tyrosine; Ygp(3) = O-(PEG8-amino)-tyrosine; Yn3(3) = O-(PEG9-azido)-tyrosine; hSer = N[C@@H](CCO)C(=O)O; Nle = CCCC[C@H](N)C(=O)O; Dab = NCC[C@H](N)C(=O)O

What was measured:
[1] = molecular target: T1, IL-2 receptor βγ complex (human, UniProt P14784 27-551; P31785 23-369); test: cell-based or functional assay
T1 sequence (looked up) 1: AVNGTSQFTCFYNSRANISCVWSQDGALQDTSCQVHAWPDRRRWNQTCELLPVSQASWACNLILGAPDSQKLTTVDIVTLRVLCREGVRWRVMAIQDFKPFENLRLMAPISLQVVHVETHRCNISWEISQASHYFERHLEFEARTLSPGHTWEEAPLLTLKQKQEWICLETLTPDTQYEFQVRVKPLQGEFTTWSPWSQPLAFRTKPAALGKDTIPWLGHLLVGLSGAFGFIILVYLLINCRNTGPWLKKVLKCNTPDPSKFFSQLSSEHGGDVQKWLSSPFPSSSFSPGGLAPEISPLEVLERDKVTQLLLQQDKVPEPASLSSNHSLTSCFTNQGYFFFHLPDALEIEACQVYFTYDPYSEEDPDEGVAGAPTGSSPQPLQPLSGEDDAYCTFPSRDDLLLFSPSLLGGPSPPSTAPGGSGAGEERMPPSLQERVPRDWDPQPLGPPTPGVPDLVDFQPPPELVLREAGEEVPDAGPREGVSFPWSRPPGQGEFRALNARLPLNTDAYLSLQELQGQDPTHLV
T1 sequence (looked up) 2: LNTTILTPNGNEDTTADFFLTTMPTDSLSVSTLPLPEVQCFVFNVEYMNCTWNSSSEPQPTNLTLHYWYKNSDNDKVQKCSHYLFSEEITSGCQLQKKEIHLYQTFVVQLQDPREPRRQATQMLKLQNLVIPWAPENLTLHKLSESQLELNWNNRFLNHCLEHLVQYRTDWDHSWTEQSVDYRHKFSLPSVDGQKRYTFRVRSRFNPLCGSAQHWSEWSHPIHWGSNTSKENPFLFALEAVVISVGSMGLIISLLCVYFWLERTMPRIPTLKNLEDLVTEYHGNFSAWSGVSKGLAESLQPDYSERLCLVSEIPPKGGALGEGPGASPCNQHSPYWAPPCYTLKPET

[2] = molecular target: T2, IL-2 receptor βγ complex on C57BL/6 mouse splenocytes (mouse, UniProt P16297 27-539; P34902 23-369); test: cell-based or functional assay
T2 sequence (looked up) 1: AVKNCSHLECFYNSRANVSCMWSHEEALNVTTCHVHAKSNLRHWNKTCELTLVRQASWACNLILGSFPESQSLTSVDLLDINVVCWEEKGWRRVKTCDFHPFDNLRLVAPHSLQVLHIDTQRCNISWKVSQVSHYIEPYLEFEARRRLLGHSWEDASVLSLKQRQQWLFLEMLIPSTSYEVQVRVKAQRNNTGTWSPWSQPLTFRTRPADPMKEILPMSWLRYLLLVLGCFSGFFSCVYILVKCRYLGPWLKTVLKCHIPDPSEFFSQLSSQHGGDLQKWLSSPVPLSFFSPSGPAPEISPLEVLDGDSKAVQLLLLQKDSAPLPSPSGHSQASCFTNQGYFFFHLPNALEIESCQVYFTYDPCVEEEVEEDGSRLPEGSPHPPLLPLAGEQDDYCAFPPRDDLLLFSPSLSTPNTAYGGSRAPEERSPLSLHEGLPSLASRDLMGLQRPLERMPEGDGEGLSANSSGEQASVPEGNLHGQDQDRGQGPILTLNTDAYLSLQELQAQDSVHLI
T2 sequence (looked up) 2: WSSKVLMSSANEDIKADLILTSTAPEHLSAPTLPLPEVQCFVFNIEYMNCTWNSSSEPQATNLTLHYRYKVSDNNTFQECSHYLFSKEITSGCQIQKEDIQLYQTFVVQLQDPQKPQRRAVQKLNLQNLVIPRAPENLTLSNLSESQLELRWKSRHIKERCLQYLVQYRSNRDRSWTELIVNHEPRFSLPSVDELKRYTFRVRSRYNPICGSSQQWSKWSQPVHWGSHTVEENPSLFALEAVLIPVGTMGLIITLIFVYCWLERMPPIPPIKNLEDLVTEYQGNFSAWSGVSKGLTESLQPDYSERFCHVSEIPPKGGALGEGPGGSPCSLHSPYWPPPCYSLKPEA

[3] = molecular target: T1, IL-2 receptor βγ complex; test: cell-based or functional assay; remark: listed apart in the source
[4] = molecular target: T3, IL-2 receptor βγ complex on human T cells (human, UniProt P14784 27-551; P31785 23-369); test: cell-based or functional assay
T3 sequence (looked up) 1: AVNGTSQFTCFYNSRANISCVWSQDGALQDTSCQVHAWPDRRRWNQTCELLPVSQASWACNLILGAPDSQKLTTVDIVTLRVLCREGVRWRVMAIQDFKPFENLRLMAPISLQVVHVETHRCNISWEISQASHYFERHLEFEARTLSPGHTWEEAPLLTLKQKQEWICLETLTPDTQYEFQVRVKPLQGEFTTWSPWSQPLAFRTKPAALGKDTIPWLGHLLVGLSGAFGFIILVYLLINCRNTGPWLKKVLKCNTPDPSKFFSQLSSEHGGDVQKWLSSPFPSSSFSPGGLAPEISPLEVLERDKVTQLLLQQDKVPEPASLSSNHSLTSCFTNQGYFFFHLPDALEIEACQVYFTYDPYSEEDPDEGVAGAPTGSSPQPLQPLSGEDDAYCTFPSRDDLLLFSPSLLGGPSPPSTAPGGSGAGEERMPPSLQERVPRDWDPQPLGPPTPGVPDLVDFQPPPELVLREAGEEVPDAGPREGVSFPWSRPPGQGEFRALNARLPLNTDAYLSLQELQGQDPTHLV
T3 sequence (looked up) 2: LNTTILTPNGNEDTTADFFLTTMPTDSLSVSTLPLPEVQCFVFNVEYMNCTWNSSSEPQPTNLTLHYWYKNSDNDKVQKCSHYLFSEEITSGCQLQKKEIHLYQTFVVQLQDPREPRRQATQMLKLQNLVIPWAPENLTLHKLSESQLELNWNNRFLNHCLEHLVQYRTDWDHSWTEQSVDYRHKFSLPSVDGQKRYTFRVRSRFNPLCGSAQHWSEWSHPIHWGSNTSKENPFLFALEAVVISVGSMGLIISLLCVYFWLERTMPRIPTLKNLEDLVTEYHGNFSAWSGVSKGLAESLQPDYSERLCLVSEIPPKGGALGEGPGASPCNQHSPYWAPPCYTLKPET

[5] = molecular target: T4, Avi-tag Fc with human IL-2R beta and IL-2R gamma attached (Acrobiosystems ACRB-ILG-H82F3-25UG) (human, UniProt P14784 27-239; P31785 23-262); test: BLI (Octet R8), receptor on SAX2 sensor; construct CMP-145, not MMP2-treated
T4 construct: Bought; attached to the SAX2 biosensor; also called CD122 CD132; IL-2R βγ; not shown: Fc and Avi-tag
T4 sequence (looked up) 1: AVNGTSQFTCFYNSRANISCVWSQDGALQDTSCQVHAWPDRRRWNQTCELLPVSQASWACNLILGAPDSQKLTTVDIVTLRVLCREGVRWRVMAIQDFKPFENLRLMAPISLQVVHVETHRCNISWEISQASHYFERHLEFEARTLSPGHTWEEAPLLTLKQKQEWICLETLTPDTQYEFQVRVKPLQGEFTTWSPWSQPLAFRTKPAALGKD
T4 sequence (looked up) 2: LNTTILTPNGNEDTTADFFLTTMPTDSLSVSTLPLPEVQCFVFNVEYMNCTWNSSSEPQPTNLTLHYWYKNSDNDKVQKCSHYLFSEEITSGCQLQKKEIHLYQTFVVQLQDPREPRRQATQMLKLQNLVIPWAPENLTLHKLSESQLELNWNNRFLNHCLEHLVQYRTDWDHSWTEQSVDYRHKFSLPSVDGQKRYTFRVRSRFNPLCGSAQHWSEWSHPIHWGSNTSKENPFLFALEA
Procedure: (§1) Bilayer interferometry (BLI) assays were used to measure the binding constants between activatable IL-2 polypeptides (and activated versions thereof) to IL-2 receptor subunits or receptor complexes. BLI assays were conducted on an Octet® R8 instrument. Assay plates were 96 well, polypropylene, F-bottom (chimney well), black microplates (Greiner Bio-one, Cat. No: 655209). The biosensors were Octet® SAX2 (Sartorius, Cat. No: 18-5136). The assay buffer was 1X Kinetic Buffer (Sartorius, Cat. no: 18-5136) or Phosphate Buffered Saline (PBS) that contained 0.02% (v: v) Tween 20 (Polysorbate 20) and 0.1% (w/v) bovine serum albumin (BSA). The sensor was regenerated between measurements in 10 mM glycine pH 2.7 buffer.
(§2) Sensor attached receptors were either recombinant human IL-2 receptor beta containing a His-tag and Avi-tag™ (R&D Systems™) or an Avi-tag™ Fc with human IL-2R beta and IL-2R gamma attached (Acrobiosystems Cat. no: ACRB-ILG-H₈₂F3-25UG). Receptors were reconstituted from lyophilized powder to 500 μg/ml in PBS. Analytes were diluted in Kinetic buffer to 300 nM, then serially diluted to lower concentrations.

[6] = molecular target: T5, recombinant human IL-2 receptor beta containing a His-tag and Avi-tag (human, UniProt P14784 27-239); test: as above
T5 construct: Bought; attached to the SAX2 biosensor; also called CD122; IL-2R β; not shown: His-tag and Avi-tag
T5 sequence (looked up): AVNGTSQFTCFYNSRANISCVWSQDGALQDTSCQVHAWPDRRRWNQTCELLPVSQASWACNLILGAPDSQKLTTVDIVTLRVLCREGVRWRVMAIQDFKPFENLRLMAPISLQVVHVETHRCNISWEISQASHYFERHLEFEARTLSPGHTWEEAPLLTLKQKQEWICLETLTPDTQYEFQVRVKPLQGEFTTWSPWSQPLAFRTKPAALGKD
Procedure: as §1, §2

[7] = molecular target: T4, Avi-tag Fc with human IL-2R beta and …; test: BLI (Octet R8), receptor on SAX2 sensor
Procedure: as §1, §2

[8] = molecular target: T5, recombinant human IL-2 receptor beta …; test: BLI (Octet R8), receptor on SAX2 sensor; construct CMP-168, intact (no MMP2)
Procedure: as §1, §2

[9] = molecular target: T5, recombinant human IL-2 receptor beta …; test: BLI (Octet R8), receptor on SAX2 sensor
Procedure: as §1, §2

[10] = molecular target: T5, recombinant human IL-2 receptor beta …; test: BLI (Octet R8), receptor on SAX2 sensor; CMP-168 treated with MMP2 (cleaved)
Procedure: as §1, §2

B3: CMP-130 (ligand)
chain: APTSSSTKKTQLQLE[Dab]LLLDLQ[Nle]ILNGINNYKNPKLTR[Nle]L[hSer][Yn3(7)]KF[Ygp(7)][Nle]PKKATELKHLQCLEEELKPLEEVL[hSer]LAQSKNFHLRPRDLISNINVIVLELKGSETTF[hSer]CEYADETATIVEFLNRWITFSQSIISTLT
modifications: ends and bridges not checked
Average EC50, pSTAT5 Assay (T cells), intact molecule [4]: 66.8 nM

B4: CMP-145 (ligand)
chain: APTSSSTKKTQLQLEHLLLDLQKILNGINNYKNPKLTR[Nle]L[hSer][Yn3(3)]KF[Ygp(3)][Nle]PKKATELKHLQCLEEELKPLEEVL[hSer]LAQSKNFHLRPRDLISNINVIVLELKGSETTF[hSer]CEYADETATIVEFLNRWITFSQSIISTLT
modifications: also: Lys23 side chain attached to another sequence (not given here)
notes: Synthetic IL-2 polypeptide, tested intact
Kd [5]: 0.0102 µM
Kd [6]: 1.83 µM
koff [7]: 0.00117 s⁻¹

Other lines, results leading:

Average EC50, pSTAT5 Assay (T cells) [1]: 1.81 nM
Average EC50, pSTAT5 Assay in mouse splenocytes [2]: 89.2 nM
Average EC50, pSTAT5 Assay in NK cells [3]: 0.352 nM
B1: CMP-151, MMP2 cleaved molecule (ligand)
chain: APTSSSTKKTQLQLEHLLLDLQKILNGINNYKNPKLTR[Nle]L[hSer][Yn3″]KF[Ygp″][Nle]PKKATELKHLQCLEEELKPLEEVL[hSer]LAQSKNFHLRPRDLISNINVIVLELKGSETTF[hSer]CEYADETATIVEFLNRWITFSQSIISTLT
modifications: not fully specified; also: cleaved by MMP2, cleavage product not defined, N-terminal glutaryl-PEG9 link and Lys23 side-chain attachment not defined

Average EC50, pSTAT5 Assay (T cells) [1]: 2.32 nM
Average EC50, pSTAT5 Assay in mouse splenocytes [2]: 75.1 nM
Average EC50, pSTAT5 Assay in NK cells [3]: 0.288 nM
B2: CMP-138, MMP2 cleaved molecule (ligand)
chain: APTSSSTKKTQLQLEHLLLDLQ[Nle]ILNGIENYKNPKLTR[Nle]L[hSer][Yn3]KF[Ygp][Nle]PKKATELKHLQCLEEELKPLEEVL[hSer]LAQSKNFHLRPRDLISNINVIVLELKGSETTF[hSer]CEYADETATIVEFLNRWITFSQSIISTLT
modifications: ends and bridges not checked; also: cleaved by MMP2, cleavage product not defined, N-terminal PEG4 link and Glu29 side-chain attachment of the cleavable peptide not defined

koff [7]: 0.0022 s⁻¹
Kd [8]: 25.1 µM
B5: CMP-168 (ligand)
chain: APTSSSTKKTQLQLEHLLLDLQEILNGINNYKNPKLTR[Nle]L[hSer][Yn3″]KF[Ygp″][Nle]PKKATELKHLQCLEEELKPLEEVL[hSer]LAQSKNFHLRPRDLISNINVIVLELKGSETTF[hSer]CEYADETATIVEFLNRWITFSQSIISTLT
modifications: bridge 9-23; not fully specified (bridges); ends not checked

Kd [7]: 0.00227 µM
koff [7]: 0.00164 s⁻¹
kon [7]: 602000 M⁻¹ s⁻¹
koff [9]: 1.08 s⁻¹
kon [9]: 789 M⁻¹ s⁻¹
Kd [10]: 1370 µM
B6: CMP-168, MMP2 cleaved (ligand)
chain: APTSSSTKKTQLQLEHLLLDLQEILNGINNYKNPKLTR[Nle]L[hSer][Yn3″]KF[Ygp″][Nle]PKKATELKHLQCLEEELKPLEEVL[hSer]LAQSKNFHLRPRDLISNINVIVLELKGSETTF[hSer]CEYADETATIVEFLNRWITFSQSIISTLT
modifications: ends and bridges not checked; also: MMP2 cleaved, ring opened, cut site and remnants not given here
notes: Tested after MMP2 treatment
